Literature values, collected in publication PMC7106362.

Molecular target: m157 (Murine cytomegalovirus) (UniProt A8E1S5)
Assay: SPR

In the case of Ly49H (from UniProt Q60682), the Kd is listed as 1000 nM.
